How the values were obtained:
CD16a (human) = CD16a (human) (UniProt P08637); experiment: FACS
CD16b (human) = CD16b (human) (UniProt O75015); experiment: FACS
CD16b (human), sequence (O75015 17-200): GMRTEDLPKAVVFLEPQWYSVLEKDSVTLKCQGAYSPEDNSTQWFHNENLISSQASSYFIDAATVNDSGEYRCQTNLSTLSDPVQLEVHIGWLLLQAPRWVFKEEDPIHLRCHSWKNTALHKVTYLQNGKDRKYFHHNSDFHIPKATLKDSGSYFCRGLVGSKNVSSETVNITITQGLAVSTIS

CD16a (human), sequence (P08637 17-254): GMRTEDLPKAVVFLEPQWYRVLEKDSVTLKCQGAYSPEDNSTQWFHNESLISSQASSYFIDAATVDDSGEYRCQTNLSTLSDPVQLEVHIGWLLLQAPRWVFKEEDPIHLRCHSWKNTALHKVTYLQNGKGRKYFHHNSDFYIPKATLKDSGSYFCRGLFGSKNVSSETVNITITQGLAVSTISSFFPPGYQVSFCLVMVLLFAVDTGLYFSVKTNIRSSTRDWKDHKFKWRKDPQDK

Substance	EC50 (CD16a (human)) [µM]	EC50 (CD16b (human)) [µM]
mouse IgG	1950	1440
CD16A-mIgG1		401
